{"source": "patent US20210388031A1", "about": "(New Jersey Institute of Technology, published 2021)", "biological_target": "SARS-CoV-2 Spike protein on live virus (SARS-CoV-2, UniProt P0DTC2)", "assay": "cell-based or functional assay", "data": [{"binder": "ESLSLSLSLSLSLEGSALEEGQLKTFLDKFMHELEDLLYQLAL", "note": "[ESBP2]", "values": [{"measurement": "IC50 of reduction in live-virus infectivity", "result": "< 10", "unit": "nM"}]}]}
